Test results reported in the supplement of paper PMC9170038.

test system: MS2 coat protein; experiment: apparent KD of MS2 coat protein; higher = weaker reporter binding; conditions: Eterna round: R107; input ligand: arginine 13.2 mM
In short: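 Designed RNA switches were transcribed on-chip from Illumina sequencing clusters. They were then titrated with SNAP-549-labelled MS2 coat protein (twofold steps, 0.7 or 1.5 nM to 3 µM; 0.8–1.5 h to 10–20 min per step) in 100 mM Tris-HCl pH 7.5, 80 mM KCl, 4 mM MgCl2, without or with constant ligand. Apparent KD is the per-design median of normalised cluster binding-curve fits.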

“UCACAUGAGGAUCACCCAUGUGUCAGAGAAGGAGCGGCCGCAAGGCCAGGUAGGUCGCUCGGGUAUGGUGAGGUUCACCCGUGUG [#1 Exclusion - Arginine A Attempt #13 (Inspired by cyborg)]” and “ACCUACACGGAGACGUGUAGGAGUAAUGAUACCAGCAUGGAGACAUGCCCUUGGCAGCGUUACAUGAGGAUCACCCAUGUGGUGC [ETHA #6]” are within 1.5-fold of each other in “apparent KD of MS2 coat protein” value: 28.3 nM for the first, 19.1 nM for the second.

First: ACGUAAUGCAGAAGGAGCGUCGACCUCUUACAUGAGGAUCACCCAUGUUGCAUGGUUGUACGACAGGUAGGUCGCUGAAGUACGA [#05 Exclusion - Arginine B]
Second: CAAUCUACCACCGGCCUACUGUACACUCGCCGAGGACCGGUACGGCCGCCACUCGACGUUCGACAUGAGGAUCACCCAUGUGGGU [theeternabot_exclusion_MS2_Trp_A_14]
The “apparent KD of MS2 coat protein” value of the first is 2.3-fold lower: 34.5 nM for the first, 80.1 nM for the second.

Going from “AACCACGAGUCGGCCGCCACUUGCAACUAGUUUCAGAAGCAGAAACAUGAGGAUCACCCAUGUCGAAGGACCGGGACUUUACAGG [theeternabot_sameState_MS2_Trp_B_18]” to “GCGGUGGGUCAAAAGUAAUAGAAUUCUGAAGGAGCGUGAUGAAACACAGGUAGGUCGCAGGAACAUGAGGAUCACCCAUGUACGG [Same State Arginine A GF21]”, the “apparent KD of MS2 coat protein” value rises from 21.6 nM to 34.4 nM (1.6-fold).

“CCUCAUGAACAUGAGGAUCACCCAUGUACACGAGGACCGGUACGGCCGCCACUCGAAUAACCUUAAUAUAAAUAAUAAUAAAAGG [5' end split MS2]” and “GAUUACAUGAGGAUCACCCAUGUAACUGAAGGAGCGGUAAUAAAGCCAGGUAGGUCGCAGAACGACAUGUGGUUCAUCCAUGUAA [#15 Exclusion - Arginine A]” are within 1.5-fold of each other in “apparent KD of MS2 coat protein” value: 14.5 nM for the first, 14.3 nM for the second.

Going from “GAUGAUAUUGCAGAUACCAGACACAUGAGGAUCACCCAUGUCUCUGAGAUGAAGGAUCGUGUCCCUUGGCAGCUGCGAUAUCAUC [Bulgaria]” to “ACAUGAGGAUCACCCAUGUACAUGACGGAAGGAGCGUGCAAAAGCACAGGUAGGUCGCCGAUCUACAUAUUGGGUAUUAUAUUUU [#29 Exclusion - Arginine A]”, the “apparent KD of MS2 coat protein” value falls from 25.1 nM to 15.4 nM (1.6-fold).

Compared with “CGUGUCGUAACUGAUACCAGUGUACUGACAUGAGGAUCACCCAUGUUGGGUUUUGUUGUACACCCUUGGCAGCAGAAUCGAUACG [AstrosExyTheB#7]”, “ACAUGAGGAUCACCCAUGUGAAGGCACGAUACCAGCUGAUCCCGUGGCCCUUGGCAGCGUCCGGUUUGGUCCGGCGGAUGGGACG [vvamullin]” is 3.5-fold lower in “apparent KD of MS2 coat protein” value: 46.3 nM for the first, 13.1 nM for the second.

First: AAUUAUCAGUCGGCCGCCACUGACACAUGAGGAUCACCCAUGUAAUAUGGGUAAAAUUAACUGAACAGGACCGGGACAAAUGCUA [JR_SSTryptoB_Sub021]
Second: GUCAGAACAUAUCAUGUUCUGGCACUGGAAGGAGCGAGCGAGAGCUCAGGUAGGUCGCCAGAACAUGAGGAUCACCCAUGUAAUA [(A)''-(M)'-(A)'(Arg1)-(Arg2)-(M1)-(M2)_Design11]
The “apparent KD of MS2 coat protein” value of the first is 2.7-fold higher: 135 nM for the first, 50.5 nM for the second.

Compared with “UCGACAGUGAACGAUACCAGCGUCACGUGGCCGGUGGUCACAUGAGGAUCACCCAUGUAACGCCCUUGGCAGCGUGCACGUAUCC [Berisoor]”, “UAAUCAGUGCCGGUUCUCGGAUCCUCAUGUCGAGGACCGGUACGGCCGCCACUCGAAACAUGAGGAUCACCCAUGUAAUAAUAAU [#09 Exclusion Tryptophan A]” is 2.5-fold higher in “apparent KD of MS2 coat protein” value: 17.5 nM for the first, 44.2 nM for the second.

same assay, conditions: Eterna round: R107; input ligand: none

“UCACAUGAGGAUCACCCAUGUGUCAGAGAAGGAGCGGCCGCAAGGCCAGGUAGGUCGCUCGGGUAUGGUGAGGUUCACCCGUGUG [#1 Exclusion - Arginine A Attempt #13 (Inspired by cyborg)]” and “ACGUAAUGCAGAAGGAGCGUCGACCUCUUACAUGAGGAUCACCCAUGUUGCAUGGUUGUACGACAGGUAGGUCGCUGAAGUACGA [#05 Exclusion - Arginine B]” are within 1.5-fold of each other in “apparent KD of MS2 coat protein” value: 47.3 nM for the first, 38.2 nM for the second.

Compared with “GCGGUGGGUCAAAAGUAAUAGAAUUCUGAAGGAGCGUGAUGAAACACAGGUAGGUCGCAGGAACAUGAGGAUCACCCAUGUACGG [Same State Arginine A GF21]”, “CCUCAUGAACAUGAGGAUCACCCAUGUACACGAGGACCGGUACGGCCGCCACUCGAAUAACCUUAAUAUAAAUAAUAAUAAAAGG [5' end split MS2]” is 2-fold lower in “apparent KD of MS2 coat protein” value: 34 nM for the first, 16.7 nM for the second.

Going from “GAUUACAUGAGGAUCACCCAUGUAACUGAAGGAGCGGUAAUAAAGCCAGGUAGGUCGCAGAACGACAUGUGGUUCAUCCAUGUAA [#15 Exclusion - Arginine A]” to “ACAUGAGGAUCACCCAUGUACAUGACGGAAGGAGCGUGCAAAAGCACAGGUAGGUCGCCGAUCUACAUAUUGGGUAUUAUAUUUU [#29 Exclusion - Arginine A]”, the “apparent KD of MS2 coat protein” value falls from 39.1 nM to 19.4 nM (2-fold).

Going from “ACAUGAGGAUCACCCAUGUGAAGGCACGAUACCAGCUGAUCCCGUGGCCCUUGGCAGCGUCCGGUUUGGUCCGGCGGAUGGGACG [vvamullin]” to “GUCAGAACAUAUCAUGUUCUGGCACUGGAAGGAGCGAGCGAGAGCUCAGGUAGGUCGCCAGAACAUGAGGAUCACCCAUGUAAUA [(A)''-(M)'-(A)'(Arg1)-(Arg2)-(M1)-(M2)_Design11]”, the “apparent KD of MS2 coat protein” value rises from 18.8 nM to 63.4 nM (3.4-fold).

same assay, conditions: Eterna round: R107; input ligand: theophylline 20 uM

First: UCACAUGAGGAUCACCCAUGUGUCAGAGAAGGAGCGGCCGCAAGGCCAGGUAGGUCGCUCGGGUAUGGUGAGGUUCACCCGUGUG [#1 Exclusion - Arginine A Attempt #13 (Inspired by cyborg)]
Second: ACCUACACGGAGACGUGUAGGAGUAAUGAUACCAGCAUGGAGACAUGCCCUUGGCAGCGUUACAUGAGGAUCACCCAUGUGGUGC [ETHA #6]
The “apparent KD of MS2 coat protein” value of the first is 2-fold higher: 73 nM for the first, 37.4 nM for the second.

First: ACGUAAUGCAGAAGGAGCGUCGACCUCUUACAUGAGGAUCACCCAUGUUGCAUGGUUGUACGACAGGUAGGUCGCUGAAGUACGA [#05 Exclusion - Arginine B]
Second: CAAUCUACCACCGGCCUACUGUACACUCGCCGAGGACCGGUACGGCCGCCACUCGACGUUCGACAUGAGGAUCACCCAUGUGGGU [theeternabot_exclusion_MS2_Trp_A_14]
The “apparent KD of MS2 coat protein” value of the first is 2.2-fold lower: 89.5 nM for the first, 200 nM for the second.

First: AACCACGAGUCGGCCGCCACUUGCAACUAGUUUCAGAAGCAGAAACAUGAGGAUCACCCAUGUCGAAGGACCGGGACUUUACAGG [theeternabot_sameState_MS2_Trp_B_18]
Second: GCGGUGGGUCAAAAGUAAUAGAAUUCUGAAGGAGCGUGAUGAAACACAGGUAGGUCGCAGGAACAUGAGGAUCACCCAUGUACGG [Same State Arginine A GF21]
The “apparent KD of MS2 coat protein” value of the first is 2.1-fold lower: 23.2 nM for the first, 49 nM for the second.

Compared with “CCUCAUGAACAUGAGGAUCACCCAUGUACACGAGGACCGGUACGGCCGCCACUCGAAUAACCUUAAUAUAAAUAAUAAUAAAAGG [5' end split MS2]”, “GAUUACAUGAGGAUCACCCAUGUAACUGAAGGAGCGGUAAUAAAGCCAGGUAGGUCGCAGAACGACAUGUGGUUCAUCCAUGUAA [#15 Exclusion - Arginine A]” is 2.2-fold higher in “apparent KD of MS2 coat protein” value: 21.5 nM for the first, 46.9 nM for the second.
